Measurements: PMC3695727

Molecular target: Orai expressed in cell membranes (Drosophila melanogaster) (UniProt Q9U6B8)
Test: cross-linking

stoichiometry N: 6
Substance: Orai expressed in cell membranes (from UniProt Q9U6B8 1-351) (natural protein)
